We go through 1 protein from PMC11750108, “FlbB forms a distinctive ring essential for periplasmic flagellar assembly and motility in Borrelia burgdorferi” (PLOS Pathogens, 2025).

This series deals with the molecule itself. Kind of series: SEC-SAXS; purified FLAG-FlbB-His6 at 4 mg/ml, 10 mM HEPES, 140 mM NaCl, pH 7.3; Shodex 802.5 SEC column, SIBYLS beamline 12.3.1; molecular weight from the volume of correlation. Background: SEC sorts molecules by how far they enter the pores of the column.

B1: FLAG-FlbB-His6 (deleted the first 42 aa from the FlbB) (domain or fragment)
chain: FPEFVRTKLLGETSLVFDHNSNIILDEARLVKEREAIDIKNQQIEKLKEDLKLKEDSLNKLEFELKQKQKDLDLKQKVIDDIINKYNDEEANILQTAVYLMNMPPEDAVKRLEDLNPELAISYMRKIEELSKKEGRLSIVPYWLSLMDSKKAAILIRKMSVSSLE
notes: FlbB, periplasmic flagellar collar protein of Borrelia burgdorferi (205 amino acids); the first 42 aa (with the N-terminal transmembrane helix) deleted; The deletion of the first 42 aa is stated only for the SEC-SAXS sample; Monomer estimated at 20.85 kDa; also called FlbB-6His; source: E. coli codon plus cells; in lysate of mixed cells (pull-downs); purified recombinant (SEC-SAXS, far-western); …
Usually stoichiometry N stands for a count of units in the complex or per binding partner. Regarding B1, the “stoichiometry N” value worked out at 2.
